Experimental data from patent US20220119828.

Molecular target: T1, AcTPase4xOs (enhanced, rice codon-optimized Ac transposase with SV40 NLS) (Zea mays (engineered)) (UniProt P08770)
T1 sequence (P08770 whole entry, looked up): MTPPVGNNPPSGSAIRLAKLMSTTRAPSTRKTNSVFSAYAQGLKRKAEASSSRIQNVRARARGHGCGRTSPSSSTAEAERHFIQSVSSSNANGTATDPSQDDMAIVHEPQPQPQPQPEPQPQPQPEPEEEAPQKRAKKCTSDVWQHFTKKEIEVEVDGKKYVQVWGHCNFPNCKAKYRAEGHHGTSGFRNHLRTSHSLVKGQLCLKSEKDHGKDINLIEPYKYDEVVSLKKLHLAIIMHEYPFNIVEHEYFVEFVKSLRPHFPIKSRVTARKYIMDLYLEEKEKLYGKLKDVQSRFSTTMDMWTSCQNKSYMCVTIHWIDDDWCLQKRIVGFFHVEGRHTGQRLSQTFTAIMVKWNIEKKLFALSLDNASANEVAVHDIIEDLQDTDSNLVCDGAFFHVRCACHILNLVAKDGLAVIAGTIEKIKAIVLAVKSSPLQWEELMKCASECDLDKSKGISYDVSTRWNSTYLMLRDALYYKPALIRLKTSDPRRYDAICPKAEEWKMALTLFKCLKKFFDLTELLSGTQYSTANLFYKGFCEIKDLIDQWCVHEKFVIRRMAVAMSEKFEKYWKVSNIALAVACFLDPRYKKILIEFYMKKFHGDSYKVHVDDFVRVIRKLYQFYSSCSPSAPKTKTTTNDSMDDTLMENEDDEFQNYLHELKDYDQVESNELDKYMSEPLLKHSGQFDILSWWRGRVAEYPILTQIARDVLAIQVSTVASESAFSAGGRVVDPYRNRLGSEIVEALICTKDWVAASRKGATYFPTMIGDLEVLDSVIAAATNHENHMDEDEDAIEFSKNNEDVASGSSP
Assay: cell_activity
Conditions: pZEN31E in rice callus, heat shock 42 C 90 min; 81.1% without heat shock; 0% for pZEN30NC lacking transposase

In the case of “CAGGGATGAAAGTAGGATGGGAAAATCCCGTACCGACCGTTATCGTATAACCGATTTTGTTAGTTTTATCCCGATCGATTTCGAACCCGAGGTAAAAAACGAAAACGGAACGGAAACGGGATATACAAAACGGTAAACGGAAACGGAAACGGTAGAGCTAGTTTCCCGACCGTTTCACCGGGATCCCGTTTTTAATCGGGATGATCCCGTTTCGTTACCGTATTTTCTAATTCGGGATGACTGCAATATGGCCAGCTCCAACTCCCATCCATAACCACTGAGGCCCAGCCCATGTAAGAATGCTCCAGATTTATATGGATTTTATCTATGTTTAATTAAGACTTGTGTTTACAATTTTTTATATTTGTTTTTAAGTTTTGAATATATGTTTTCATGTGTGATTTTACCGAACAAAAATACCGGTTCCCGTCCGATTTCGACTTTAACCCGACCGGATCGTATCGGTTTTCGATTACCGTATTTATCCCGTTCGTTTTCGTTACCGGTATATCCCGTTTTCGTTTCCGTCCCGCAAGTTAAATATGAAAATGAAAACGGTAGAGGTATTTTACCGACCGTTACCGACCGTTTTCATCCCTA (double strand)”, the activity (% callus lines with excision) is reported as 95.1.
